Tests used:
Human CD38 protein = target: T1, Human CD38 protein (human, UniProt P28907 43-300, limits assumed, biotinylated with EZ-Link NHS-LC-Biotin (sites not given)); test: SPR, Biacore 8K, biotinylated CD38 captured on CAP chip, antibody as analyte, 1:1 model
T1 construct: Biotinylated and captured on a Biacore CAP chip; also called CD38-biotin; Biotin-CD38

CD38-ECD-Cyno = target: T2, CD38-ECD-Cyno (cynomolgus monkey, UniProt Q5VAN0 44-301); test: ELISA, plate coated with CD38-ECD-Cyno (10 ng/well), anti-human Fc-HRP detection
T2 construct: Recombinant protein expressed in HEK293F cells and purified on Ni-NTA; Coated on the ELISA plate at 10 ng/well; also called cynomolgus monkey CD38; cynomolgus monkeys CD38; not shown: polyhistidine tag added at the end of the gene
Description: The microplates were coated with corresponding recombinant proteins and closed with PBST containing 1% bovine serum albumin (PBST is a phosphate buffer containing 0.05% Tween-20). The tested antibody was diluted in a gradient and it was transferred to a microplate coated with recombinant protein. The sample was incubated at room temperature for half an hour. After washing the plate, appropriately diluted HRP (Horseradish Peroxidase) labeled sheep anti human antibody (Fc specific, purchased from Sigma) was added and incubated at room temperature for half an hour. After washing, 100 μL color developing solution with TMB(3,3′,5,5′-Tetramethylbenzidine) as substrate was added to each well and incubated at room temperature for 1˜5 min. The reaction was terminated by adding 50 μL termination solution (2 M H₂SO₄). The board reader (SpectraMax 190) reads OD450. GraphPad Prism7 was used for mapping and data analysis, and EC50/IC50 was calculated.
Microplate (10 ng/well) was coated with CD38-ECD-Cyno, and the binding ability of CD38-ECD-Cyno to 50G12-Hu-IgG1, OKT10-Hu-IgG1, Daratumumab-IgG1, and Isatuximab-IgG1 was determined by ELISA.

T2 sequence (Q5VAN0 44-301): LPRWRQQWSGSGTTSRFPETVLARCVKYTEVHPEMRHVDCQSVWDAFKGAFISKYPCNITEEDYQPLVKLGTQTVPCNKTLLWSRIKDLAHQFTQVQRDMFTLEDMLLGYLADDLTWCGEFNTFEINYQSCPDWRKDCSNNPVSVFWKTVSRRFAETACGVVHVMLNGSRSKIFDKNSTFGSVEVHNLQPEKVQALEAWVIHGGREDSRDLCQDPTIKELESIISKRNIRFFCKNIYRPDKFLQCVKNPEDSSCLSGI

Row | Kd (Human CD38 protein) [nM] | koff (Human CD38 protein) [s⁻¹] | kon (Human CD38 protein) [M⁻¹ s⁻¹] | EC50 (CD38-ECD-Cyno) [nM] | Binder
1 | 3.58 | 0.000613 | 171000 | – | 50G12-Hu-IgG1 (antibody, Humanized anti-human CD38 IgG1/kappa, expressed in HEK293F cells and purified on Protein A; also called 50G12-Humanized; unmutated antibody 50G12-Hu-IgG1) heavy: not shown light: DIQMTQSPSSLSASVGDRVTITCTASSSVSSSYLHWYQQKPGKAPKLWMYGTSNLASGVPSRFSGSGSGTDYTLTISSLQPEDFATYYCHRYHRSPWTFGQGTKVEIKRTVAAPSVFIFPPSDEQLKSGTASVVCLLNNFYPREAKVQWKVDNALQSGNSQESVTEQDSKDSTYSLSSTLTLSKADYEKHKVYACEVTHQGLSSPVTKSFNRGEC
2 | 2.99 | 0.00103 | 346000 | – | 50G12-L309W-E345R (antibody, human IgG1, kappa, also called 50G12-Hu-IgG1-L309W-E345R) heavy: not shown light: DIQMTQSPSSLSASVGDRVTITCTASSSVSSSYLHWYQQKPGKAPKLWMYGTSNLASGVPSRFSGSGSGTDYTLTISSLQPEDFATYYCHRYHRSPWTFGQGTKVEIKRTVAAPSVFIFPPSDEQLKSGTASVVCLLNNFYPREAKVQWKVDNALQSGNSQESVTEQDSKDSTYSLSSTLTLSKADYEKHKVYACEVTHQGLSSPVTKSFNRGEC
3 | – | – | – | 0.132 | OKT10-Hu-IgG1 (antibody, V domains shown, Humanized anti-human CD38 IgG1/kappa; also called humanized OKT10) VH: EVQLVESGGGLVQPGGSLRLSCAASGFDFSRSWMNWVRQAPGKGLEWVSEINPDSSTINYTTSLKDRFTISRDNAKNSLYLQMNSLRAEDTAVYYCARYGNWFPYWGQGTLVTVSS VL: DIQMTQSPSSLSASVGDRVTITCKASQNVDTNVAWYQQKPGKAPKALIYSASYRYSGVPSRFSGSGSGTDFTLTISSLQPEDFATYYCQQYDSYPLTFGQGTKVEIKR
